Among the data in PMC314469, “Protein Interaction Networks by Proteome Peptide Scanning” (PLoS Biology, 2004) are normalised SPOT signal, Boehringer light units (BLU); mean over the file's lines of this peptide values, retold here.

T1: Boi1 SH3 (BOI1_YEAST), P38041
T1 chain: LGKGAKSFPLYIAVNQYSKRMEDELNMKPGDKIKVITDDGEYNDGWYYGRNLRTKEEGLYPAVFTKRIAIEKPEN

T2: Boi2 SH3 (BOI2_YEAST), P39969
T2 chain: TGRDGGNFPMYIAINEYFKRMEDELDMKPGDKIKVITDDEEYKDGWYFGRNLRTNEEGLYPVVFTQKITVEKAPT

T3: Myo5 SH3 (MYO5_YEAST), Q04439
T3 chain: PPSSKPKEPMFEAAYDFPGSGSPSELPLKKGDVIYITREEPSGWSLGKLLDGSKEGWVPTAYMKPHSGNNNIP

T4: Rvs167 SH3 (RV167_YEAST), P39743
T4 chain: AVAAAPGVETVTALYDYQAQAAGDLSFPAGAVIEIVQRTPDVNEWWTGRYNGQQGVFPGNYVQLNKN

T5: Yfr024 SH3 (LSB3_YEAST), P43603
T5 chain: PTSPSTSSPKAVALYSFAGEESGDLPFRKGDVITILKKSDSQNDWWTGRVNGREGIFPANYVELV

T6: Yhr016c SH3 (YSC84_YEAST), P32793
T6 chain: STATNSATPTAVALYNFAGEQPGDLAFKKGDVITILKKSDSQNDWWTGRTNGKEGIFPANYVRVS

B1: YNL090W 103-116 (peptide)
chain: DEALRYSPDAPIVL
B2: YLR337C 513-526 (peptide)
chain: DDNVRPSPISPSIN
B3: YGL197W 260-273 (peptide)
chain: SWHPKTIPKQPMEI
B4: YPL247C 221-234 (peptide)
chain: SKYNRQHPANPAAA
B5: YIR027C 235-248 (peptide)
chain: SLRARNGPVPPVHI
B6: YOL157C 233-246 (peptide)
chain: DENSKWQPSDPFTM
B7: YOR360C 470-483 (peptide)
chain: DDIIKDHPHIPNGQ

One test concerns the target T1, Boi1 SH3 (BOI1_YEAST), P38041. The test is described as follows: SPOT array.
B1: the normalised SPOT signal, Boehringer light units (BLU); mean over the file's lines of this peptide was determined as 37.1.

In turn, B2 came in with a normalised SPOT signal, Boehringer light units (BLU); mean over the file's lines of this peptide of 19.1.

As to B3, the normalised SPOT signal, Boehringer light units (BLU); mean over the file's lines of this peptide stood at 26.3.

B4 displayed a normalised SPOT signal, Boehringer light units (BLU); mean over the file's lines of this peptide of 210.

For the molecule B5, the normalised SPOT signal, Boehringer light units (BLU); mean over the file's lines of this peptide is 638.

As to B6, the normalised SPOT signal, Boehringer light units (BLU); mean over the file's lines of this peptide amounted to 91.8.

As to B7, the normalised SPOT signal, Boehringer light units (BLU); mean over the file's lines of this peptide is 187.

A further test addresses T2, Boi2 SH3 (BOI2_YEAST), P39969. The test is described as follows: SPOT array.
For B1, the normalised SPOT signal, Boehringer light units (BLU); mean over the file's lines of this peptide is 16.1.

B2 gave a normalised SPOT signal, Boehringer light units (BLU); mean over the file's lines of this peptide of 18.9.

In the case of B3, the normalised SPOT signal, Boehringer light units (BLU); mean over the file's lines of this peptide was found to be 40.7.

On to B4, for which the normalised SPOT signal, Boehringer light units (BLU); mean over the file's lines of this peptide is 48.5.

In turn, B5 showed a normalised SPOT signal, Boehringer light units (BLU); mean over the file's lines of this peptide of 0.

Take B6: the normalised SPOT signal, Boehringer light units (BLU); mean over the file's lines of this peptide was 27.

For B7, the normalised SPOT signal, Boehringer light units (BLU); mean over the file's lines of this peptide came out at 0.5.

The next test concerns the target T3, Myo5 SH3 (MYO5_YEAST), Q04439. The test is described as follows: SPOT array.
In turn, B1 yielded a normalised SPOT signal, Boehringer light units (BLU); mean over the file's lines of this peptide of 127.

For the molecule B2, the normalised SPOT signal, Boehringer light units (BLU); mean over the file's lines of this peptide is 153.

In turn, B3 displayed a normalised SPOT signal, Boehringer light units (BLU); mean over the file's lines of this peptide of 343.

Take B4: the normalised SPOT signal, Boehringer light units (BLU); mean over the file's lines of this peptide was found to be 189.

Turning to B5, the normalised SPOT signal, Boehringer light units (BLU); mean over the file's lines of this peptide is 208.

The molecule B6 displayed a normalised SPOT signal, Boehringer light units (BLU); mean over the file's lines of this peptide of 285.

In the case of B7, the normalised SPOT signal, Boehringer light units (BLU); mean over the file's lines of this peptide turned out to be 57.8.

The target of a further test is T4, Rvs167 SH3 (RV167_YEAST), P39743. The experiment in a line: SPOT array.
Molecule B1 had a normalised SPOT signal, Boehringer light units (BLU); mean over the file's lines of this peptide of 32.9.

Consider B2, for which the normalised SPOT signal, Boehringer light units (BLU); mean over the file's lines of this peptide was 17.2.

Molecule B3 came in with a normalised SPOT signal, Boehringer light units (BLU); mean over the file's lines of this peptide of 90.4.

In turn, B4 yielded a normalised SPOT signal, Boehringer light units (BLU); mean over the file's lines of this peptide of 61.3.

B5 showed a normalised SPOT signal, Boehringer light units (BLU); mean over the file's lines of this peptide of 46.2.

B6 gave a normalised SPOT signal, Boehringer light units (BLU); mean over the file's lines of this peptide of 30.2.

B7 displayed a normalised SPOT signal, Boehringer light units (BLU); mean over the file's lines of this peptide of 25.4.

The next test deals with Sho1 SH3 (SHO1_YEAST), P40073. The experiment in a line: SPOT array.
Sequence of Sho1 SH3 (SHO1_YEAST), P40073 (P40073 295-366): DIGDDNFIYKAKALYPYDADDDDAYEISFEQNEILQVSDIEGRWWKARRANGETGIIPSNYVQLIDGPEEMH
With B1, the normalised SPOT signal, Boehringer light units (BLU); mean over the file's lines of this peptide came to 49.5.

Turning to B2, the normalised SPOT signal, Boehringer light units (BLU); mean over the file's lines of this peptide turned out to be 23.2.

In turn, B3 came in with a normalised SPOT signal, Boehringer light units (BLU); mean over the file's lines of this peptide of 187.

Molecule B4 came in with a normalised SPOT signal, Boehringer light units (BLU); mean over the file's lines of this peptide of 65.9.

Molecule B5 gave a normalised SPOT signal, Boehringer light units (BLU); mean over the file's lines of this peptide of 58.5.

In turn, B6 registered a normalised SPOT signal, Boehringer light units (BLU); mean over the file's lines of this peptide of 27.7.

Regarding B7, the normalised SPOT signal, Boehringer light units (BLU); mean over the file's lines of this peptide came out at 23.4.

The next test has as its target T5, Yfr024 SH3 (LSB3_YEAST), P43603. The test is described as follows: SPOT array.
Take B1: the normalised SPOT signal, Boehringer light units (BLU); mean over the file's lines of this peptide turned out to be 50.8.

In turn, B2 had a normalised SPOT signal, Boehringer light units (BLU); mean over the file's lines of this peptide of 120.

For the molecule B3, the normalised SPOT signal, Boehringer light units (BLU); mean over the file's lines of this peptide came out at 1300.

Regarding B4, the normalised SPOT signal, Boehringer light units (BLU); mean over the file's lines of this peptide came to 126.

Molecule B5 had a normalised SPOT signal, Boehringer light units (BLU); mean over the file's lines of this peptide of 157.

Regarding B6, the normalised SPOT signal, Boehringer light units (BLU); mean over the file's lines of this peptide stood at 12.9.

With B7, the normalised SPOT signal, Boehringer light units (BLU); mean over the file's lines of this peptide was 34.

For another test, the target named is T6, Yhr016c SH3 (YSC84_YEAST), P32793. The test is described as follows: SPOT array.
For the molecule B1, the normalised SPOT signal, Boehringer light units (BLU); mean over the file's lines of this peptide is 22.9.

With B2, the normalised SPOT signal, Boehringer light units (BLU); mean over the file's lines of this peptide turned out to be 18.2.

Molecule B3 returned a normalised SPOT signal, Boehringer light units (BLU); mean over the file's lines of this peptide of 79.8.

B4 displayed a normalised SPOT signal, Boehringer light units (BLU); mean over the file's lines of this peptide of 38.8.

Regarding B5, the normalised SPOT signal, Boehringer light units (BLU); mean over the file's lines of this peptide turned out to be 9.1.

As to B6, the normalised SPOT signal, Boehringer light units (BLU); mean over the file's lines of this peptide was found to be 10.

Turning to B7, the normalised SPOT signal, Boehringer light units (BLU); mean over the file's lines of this peptide was 74.
